Drawing on publication PMC8809517, “Cofactor-independent RNA editing by a synthetic S-type PPR protein”, this text covers Kd for four molecules.

Substitutions are numbered along the chain they refer to.

Experiment in all cases: high-throughput RNA pulldown from lysate on Ni-NTA beads; HRP: 50 mM Tris pH 8, 150 mM NaCl, 1 mM beta-mercaptoethanol, 50 ug/ml BSA, 3 ug/ml yeast RNA, 0.5% heparin; ITC and FP: Tris pH 8, 200 mM KCl, 5% glycerol; MST: 50 mM Tris pH 8, 200 mM NaCl, 1 mM DTT, BSA, heparin, 0.05% Tween 20
Common to all, as to conditions: tags: N-terminal His-eGFP

In series [1] the target is T1, GFP-9S library array, motif 4 ND N98K;D124Y (synthetic construct, N98K;D124Y).
T1 chain: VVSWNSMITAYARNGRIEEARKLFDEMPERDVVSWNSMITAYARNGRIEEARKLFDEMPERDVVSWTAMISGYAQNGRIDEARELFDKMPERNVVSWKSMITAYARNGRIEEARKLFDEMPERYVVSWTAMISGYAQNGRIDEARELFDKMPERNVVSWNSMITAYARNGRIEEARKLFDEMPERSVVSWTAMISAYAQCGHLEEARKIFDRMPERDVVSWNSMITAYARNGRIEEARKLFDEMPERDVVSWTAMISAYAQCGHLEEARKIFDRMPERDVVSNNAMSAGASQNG

Series [2] concerns the target T2, GFP-9S library array, motif 4 ND N98V;D124E (synthetic construct, N98V;D124E).
T2 chain: T1 chain with K98V, Y124E

Series [3] deals with T3, GFP-9S library array, motif 4 ND N98V;D124H (synthetic construct, N98V;D124H).
T3 chain: T1 chain with K98V, Y124H

Series [4] has as its target T4, GFP-9S library array, motif 4 ND N98T;D124W (synthetic construct, N98T;D124W).
T4 chain: T1 chain with K98T, Y124W

The target of series [5] is T5, GFP-9S library array, motif 4 ND N98S;D124E (synthetic construct, N98S;D124E).
T5 chain: T1 chain with K98S, Y124E

B1: Cy5-rpoA-G (ssRNA)
RNA: AUUAGACGUGA
In the case of B1, the Kd (commonly the free concentration of one partner at which half of the binding sites on the other are occupied at equilibrium, for simple one-to-one binding) in series [1] (label: 5' Cy5) stood at 49.3 nM; in series [2] (label: 5' Cy5) it was 167 nM; in series [3] (label: 5' Cy5) it was 155 nM; in series [4] (label: 5' Cy5) it was 71.6 nM; in series [5] (label: 5' Cy5), 122 nM.

B2: IR-rpoA-U (ssRNA)
RNA: AUUAUACGUGA
Turning to B2, the dissociation constant (Kd) was 128 nM in series [1] (label: 5' IRDye 800CW); 244 nM in series [2] (label: 5' IRDye 800CW); 219 nM in series [3] (label: 5' IRDye 800CW); 150 nM in series [4] (label: 5' IRDye 800CW); 201 nM in series [5] (label: 5' IRDye 800CW).

B3: Cy5-rpoA (ssRNA)
RNA: AUUACACGUGA
As for B3, the Kd in series [1] (label: 5' Cy5) came out at 62.5 nM; in series [2] (label: 5' Cy5), 287 nM; in series [3] (label: 5' Cy5), 160 nM; in series [4] (label: 5' Cy5), 81.5 nM; in series [5] (label: 5' Cy5) it was 276 nM.

B4: IR-rpoA-A (ssRNA)
RNA: AUUAAACGUGA
On to B4, for which the Kd in series [1] (label: 5' IRDye 800CW) worked out at 115 nM; in series [2] (label: 5' IRDye 800CW), 168 nM; in series [3] (label: 5' IRDye 800CW) it was 209 nM; in series [4] (label: 5' IRDye 800CW), 125 nM; in series [5] (label: 5' IRDye 800CW) it was 70.5 nM.
